How the values were obtained:
[1] = target: T1, human PCSK9 antigen (GeneBank AX127530.1) (human, UniProt Q8NBP7 31-692); assay: cell-based or functional assay
[2] = target: T1, human PCSK9 antigen (GeneBank …); assay: BLI (Octet Red 96), antibody on anti-human IgG Fc (AHC) biosensor, PCSK9 in solution, 1:1 model
Experimental: (§1) The ability of PCSK9 mAbs to bind to human, mouse or cynomolgus PCSK9 was characterized using the Octet Red 96 system (ForteBio). A kinetic-grade biosensor (Fortebio, #18-5063) of anti-human IgG Fc (AHC) was immersed in assay buffer after glycine pretreatment at pH 1.7. The PCSK9 monoclonal antibody to be detected was immobilized to the AHC biosensor at a concentration of 10 μg/ml for 120 seconds. The AHC biosensor loaded with the PCSK9 monoclonal antibody was then immersed in human PCSK9 antigen (GeneBank AX127530.1), mouse PCSK9 antigen (NCBI NM_153565.2) or cynomolgus PCSK9 antigen (NCBI NM_001112660.1) of different concentrations and buffer. The final dilution point of the analyte column only contained the detection buffer to test the non-specific binding between the buffer and the loaded biosensor. Antigen-antibody binding was detected from 80 to 120 s, and dissociation was detected from 120 to 180 s. A 60 second baseline was determined with the assay buffer. The affinity curves for anti-PCSK9 monoclonal antibodies were fitted using a 1:1 binding kinetic sensing monovalent binding model.

[3] = target: T2, mouse PCSK9 antigen (NCBI NM_153565.2) (mouse, UniProt Q80W65 35-694); assay: as above
T2 construct: also called msPCSK9
T2 sequence (Q80W65 35-694 limits assumed): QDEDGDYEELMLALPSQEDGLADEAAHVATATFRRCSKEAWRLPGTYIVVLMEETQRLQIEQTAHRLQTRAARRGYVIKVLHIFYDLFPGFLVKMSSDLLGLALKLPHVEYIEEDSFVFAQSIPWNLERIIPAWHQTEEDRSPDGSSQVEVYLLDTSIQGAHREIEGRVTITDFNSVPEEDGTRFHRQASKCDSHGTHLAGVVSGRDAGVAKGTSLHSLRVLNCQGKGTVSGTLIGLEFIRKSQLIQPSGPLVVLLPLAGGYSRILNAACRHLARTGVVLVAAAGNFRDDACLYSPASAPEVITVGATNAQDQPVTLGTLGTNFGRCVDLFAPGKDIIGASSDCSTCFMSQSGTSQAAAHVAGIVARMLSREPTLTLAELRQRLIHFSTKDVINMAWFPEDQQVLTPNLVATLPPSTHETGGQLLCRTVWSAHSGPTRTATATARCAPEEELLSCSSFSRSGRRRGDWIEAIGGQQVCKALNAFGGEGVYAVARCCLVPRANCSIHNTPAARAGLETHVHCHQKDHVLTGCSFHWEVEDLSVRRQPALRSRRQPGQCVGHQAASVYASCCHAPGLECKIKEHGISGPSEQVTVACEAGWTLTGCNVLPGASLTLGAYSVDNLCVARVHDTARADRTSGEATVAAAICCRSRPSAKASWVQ
Experimental: as §1

[4] = target: T1, human PCSK9 antigen (GeneBank …); assay: BLI (Octet Red 96), antibody on AHC biosensor, human PCSK9 in solution, 1:1 model
Experimental: as §1
The specific experimental procedures were shown in Example 4 and Example 5. As shown in FIG. 5 and Table 7, the affinity of the long half-life antibody 9M284QL to human PCSK9 protein was substantially identical to 9M284 because the Fab region (containing VH and VL) of the engineered antibody 9M284QL was not changed compared to 9M284. As the affinity was not changed, the long half-life Fc-modified PCSK9 antibody 9M284QL, 9M284YTE and the conventional half-life antibody 9M284 had similar EC50 in the comparative test of cellular LDL uptake experiment, as shown in FIG. 6 and Table 8.

[5] = target: T1, human PCSK9 antigen (GeneBank …); assay: cell-based or functional assay; remark: listed apart in the source
[6] = target: neonatal Fc receptor FcRn; assay: ELISA at pH 6.0, antibody coated at 10 µg/mL, His-tagged FcRn titrated, anti-His-Tag-HRP
Sequence of neonatal Fc receptor FcRn (P55899 24-297, chain 1 of 2): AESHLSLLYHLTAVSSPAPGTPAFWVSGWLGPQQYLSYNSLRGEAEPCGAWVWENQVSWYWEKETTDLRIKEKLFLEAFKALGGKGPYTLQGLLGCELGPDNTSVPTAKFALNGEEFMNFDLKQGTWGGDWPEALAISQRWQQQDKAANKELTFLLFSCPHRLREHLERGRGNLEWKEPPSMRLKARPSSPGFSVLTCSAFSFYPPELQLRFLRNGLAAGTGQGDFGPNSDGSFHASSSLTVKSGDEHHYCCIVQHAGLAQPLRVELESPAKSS
Sequence of neonatal Fc receptor FcRn (P61769 21-119, chain 2 of 2, further chain): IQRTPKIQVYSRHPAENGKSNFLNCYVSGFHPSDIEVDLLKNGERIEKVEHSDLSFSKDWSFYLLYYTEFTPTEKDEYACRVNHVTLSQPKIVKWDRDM
Experimental: (§2) The target antibody was diluted to 10 μg/mL with coating solution (15 mM Na₂CO₃, 35 mM NaHCO₃, pH 9.6), and then added to a 96-well ELISA plate at a dose of 100 μL/well and incubated at 4° C. overnight for coating. After coating, the sample wells were washed with PBST, pH 7.4 4 times, added with 300 μL/well of 4% skim milk (PBS, pH 7.4), and incubated at 25° C. for 2 hours for blocking. After blocking, the sample wells were washed 4 times with PBST, pH 7.4, added with 100 μL/well of FcRn diluted with 0.4% skim milk dissolved in PBST (pH 6.0/7.4, respectively) (initial concentration 20 μg/mL, 2-fold gradient dilution, with 11 concentration gradients in total), and incubated at 25° C. for 1.5 hours. After incubation, the sample wells were washed 4 times with PBST, pH 6.0/7.4, added with anti-His-Tag-HRP diluted in 0.4% skim milk (1/500) (pH 6.0/7.4, respectively), and incubated at 25° C. for 1 hour. After incubation, the sample wells were washed 4 times with PBST, pH 6.0/7.4, and added with 100 μL/well of TMB for development (development conditions: 25° C., 10 to 15 minutes). After development, 100 μL/well of 1 M […] was added to stop the development reaction, and the absorbance at 450 nm was read out (background correction was performed by the subtraction of the absorbance at 650 nm).

[7] = target: human PCSK9 mutant protein D374Y (human, UniProt Q8NBP7 31-692); assay: BLI (Octet Red 96), antibody on AHC biosensor, PCSK9 mutant in solution
Sequence of human PCSK9 mutant protein D374Y (Q8NBP7 31-692 D374Y limits assumed): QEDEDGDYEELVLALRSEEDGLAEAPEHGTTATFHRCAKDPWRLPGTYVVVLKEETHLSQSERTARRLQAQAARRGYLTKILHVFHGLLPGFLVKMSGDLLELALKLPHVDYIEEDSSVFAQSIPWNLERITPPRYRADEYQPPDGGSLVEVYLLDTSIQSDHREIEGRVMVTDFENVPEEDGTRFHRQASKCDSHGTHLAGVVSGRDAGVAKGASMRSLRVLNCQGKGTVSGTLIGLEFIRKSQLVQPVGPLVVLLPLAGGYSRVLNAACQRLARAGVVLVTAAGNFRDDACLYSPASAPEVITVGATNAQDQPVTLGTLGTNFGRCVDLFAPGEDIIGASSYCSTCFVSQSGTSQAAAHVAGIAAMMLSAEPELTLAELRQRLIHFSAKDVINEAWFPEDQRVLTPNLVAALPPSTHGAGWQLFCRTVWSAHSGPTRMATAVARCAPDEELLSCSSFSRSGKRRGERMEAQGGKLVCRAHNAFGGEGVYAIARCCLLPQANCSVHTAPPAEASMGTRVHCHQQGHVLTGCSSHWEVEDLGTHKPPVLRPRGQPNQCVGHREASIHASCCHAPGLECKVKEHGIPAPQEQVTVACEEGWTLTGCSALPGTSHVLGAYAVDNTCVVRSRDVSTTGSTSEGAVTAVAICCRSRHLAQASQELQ
Experimental: as §1
(§3) Human PCSK9 protein had different mutants. It was reported in the literature that there were many human PCSK9 mutants associated with hyperlipidemia. The inventors selected human PCSK9 mutant proteins of R218S, R306S, D374H, and D374Y among them, wherein the ability of PCSK9 mAbs of the invention in binding to different mutant PCSK9 proteins was characterized using the Octet Red 96 system (ForteBio) as described above. The kinetic analysis was shown in FIG. 7 and Table 9, except for R306S, the affinities of other human PCSK9 protein mutants to the PCSK9 monoclonal antibodies of the invention (normal IgG and long half-life IgG forms) were of the same order of magnitude as native human PCSK9 protein. Among them, the kon-binding ability of long half-life PCSK9 monoclonal antibody 9M284-QL to PCSK9 R218S protein was three times higher than that of 9M284 antibody.

[8] = target: human PCSK9 mutant protein R306S (human, UniProt Q8NBP7 31-692); assay: as above
Sequence of human PCSK9 mutant protein R306S (Q8NBP7 31-692 R306S limits assumed): as the sequence (Q8NBP7 31-692 D374Y limits assumed) above, with R276S, Y344D counted along it
Experimental: as §1, §3

[9] = target: human PCSK9 mutant protein D374H (human, UniProt Q8NBP7 31-692); assay: as above
Sequence of human PCSK9 mutant protein D374H (Q8NBP7 31-692 D374H limits assumed): as the sequence (Q8NBP7 31-692 D374Y limits assumed) above, with Y344H counted along it
Experimental: as §1, §3

[10] = target: T3, human PCSK9 mutant protein R218S (human, UniProt Q8NBP7 31-692); assay: as above
T3 construct: also called PCSK9 R218S protein
T3 sequence (Q8NBP7 31-692 R218S limits assumed): as the sequence (Q8NBP7 31-692 D374Y limits assumed) above, with R188S, Y344D counted along it
Experimental: as §1, §3

[11] = target: neonatal Fc receptor FcRn; assay: ELISA at pH 6.0, antibody coated, His-tagged FcRn titrated; reference 9M284
Experimental: as §2

[12] = target: T3, human PCSK9 mutant protein R218S; assay: BLI (Octet Red 96); reference 9M284
Experimental: as §1
Human PCSK9 protein had different mutants. It was reported in the literature that there were many human PCSK9 mutants associated with hyperlipidemia. […]

T1 sequence (Q8NBP7 31-692 limits assumed): as the sequence (Q8NBP7 31-692 D374Y limits assumed) above, with Y344D counted along it

Row | Binder | IC50, cellular LDL uptake assay (HepG2 cells, Dil-LDL, 20 µg/ml human PCSK9) [1] [nM] | Kd [2] [pM] | koff [2] [s⁻¹] | kon [2] [M⁻¹ s⁻¹] | Kd [3] [nM] | koff [3] [s⁻¹] | kon [3] [M⁻¹ s⁻¹] | Kd [4] [pM] | koff [4] [s⁻¹] | kon [4] [M⁻¹ s⁻¹] | EC50, cellular LDL uptake experiment [5] [µg/mL] | EC50 [6] [µg/mL] | Kd [7] [pM] | koff [7] [s⁻¹] | kon [7] [M⁻¹ s⁻¹] | Kd [8] [nM] | koff [8] [s⁻¹] | kon [8] [M⁻¹ s⁻¹] | Kd [9] [pM] | koff [9] [s⁻¹] | also measured
1 | monoclonal antibody 9M283 (antibody, human IgG2, lambda, V domains shown, the claims call them variable regions; also called PCSK9 monoclonal antibody 9M283) VH: QVQLVQSGAEVKKPGSSVKVSCKASAFTFDSFGMHWVRQAPGQGLEWMGLLWSDGSDEYYADSAKGRFTISRDNSKNTLYLQMNSLRSDDTAVYYCARALGAIYSYYAMDVWGQGTTVTVSS VL: QSALTQPPSVSGSPGQSVTISCTGTSSNIGNQFVSWYQQLPGTAPKLMIYEYNKRPSGVPDRFSGSKSGNTASLTISGLQTGDEADYYCGSWDSSLSGYVFGTGTRVTVLG | 6.12 | < 1 | < 1e-07 | 399000 | 14 | 0.0051 | 350000 | – | – | – | – | – | – | – | – | – | – | – | – | – | –
2 | monoclonal antibody 9M284 (antibody, human IgG2, lambda, Fully human antibody from a phage library; the claims call 24 and 26 variable regions; also called PCSK9 monoclonal antibody 9M284) heavy: QVQLVQSGAEVKKPGSSVKVSCKASAFTFDSFGMHWVRQAPGQGLEWMGLLWSDGSGEYYADSAKGRFTISRDNSKNTLYLQMNSLRSDDTAVYYCARAMGAIYYYYAMDVWGQGTTVTVSSASTKGPSVFPLAPCSRSTSESTAALGCLVKDYFPEPVTVSWNSGALTSGVHTFPAVLQSSGLYSLSSVVTVPSSNFGTQTYTCNVDHKPSNTKVDKTVERKCCVECPPCPAPPVAGPSVFLFPPKPKDTLMISRTPEVTCVVVDVSHEDPEVQFNWYVDGVEVHNAKTKPREEQFNSTFRVVSVLTVVHQDWLNGKEYKCKVSNKGLPAPIEKTISKTKGQPREPQVYTLPPSREEMTKNQVSLTCLVKGFYPSDIAVEWESNGQPENNYKTTPPMLDSDGSFFLYSKLTVDKSRWQQGNVFSCSVMHEALHNHYTQKSLSLSPG light: QSALTQPPSVSGSPGQSVTISCTGTSSNIGNQFVSWYQQLPGTAPKLMIYEYNKRPSGVPDRFSGSKSGNTASLTISGLQTGDEADYYCGSWDSSLSGYVFGTGTRVTVLGQPKAAPSVTLFPPSSEELQANKATLVCLISDFYPGAVTVAWKADSSPVKAGVETTTPSKQSNNKYAASSYLSLTPEQWKSHRSYSCQVTHEGSTVEKTVAPTECS | 5.75 | < 1 | < 1e-07 | 366000 | 3 | 0.00094 | 320000 | < 1 | < 1e-07 | 56000 | 4.52 | 71.9 | < 1 | < 1e-07 | 21800 | 2.4 | 8.14e-05 | 33900 | < 1 | < 1e-07 | kon [9]: 24900 M⁻¹ s⁻¹; Kd [10]: < 1 pM; koff [10]: < 1e-07 s⁻¹; kon [10]: 11400 M⁻¹ s⁻¹
3 | monoclonal antibody 9M284QL (antibody, also called long half-life PCSK9 monoclonal antibody 9M284-QL) heavy: not shown light: QSALTQPPSVSGSPGQSVTISCTGTSSNIGNQFVSWYQQLPGTAPKLMIYEYNKRPSGVPDRFSGSKSGNTASLTISGLQTGDEADYYCGSWDSSLSGYVFGTGTRVTVLGQPKAAPSVTLFPPSSEELQANKATLVCLISDFYPGAVTVAWKADSSPVKAGVETTTPSKQSNNKYAASSYLSLTPEQWKSHRSYSCQVTHEGSTVEKTVAPTECS | – | – | – | – | – | – | – | < 1 | < 1e-07 | 58500 | 5.28 | 25 | < 1 | < 1e-07 | 29700 | 1.46 | 4.64e-05 | 31800 | < 1 | < 1e-07 | fold smaller EC50 than 9M284 [11]: 2.8 fold; fold higher kon than 9M284 [12]: 3 fold; kon [9]: 26900 M⁻¹ s⁻¹; Kd [10]: < 1 pM; koff [10]: < 1e-07 s⁻¹; kon [10]: 36500 M⁻¹ s⁻¹
4 | monoclonal antibody 9M284YTE (antibody) heavy: QVQLVQSGAEVKKPGSSVKVSCKASAFTFDSFGMHWVRQAPGQGLEWMGLLWSDGSGEYYADSAKGRFTISRDNSKNTLYLQMNSLRSDDTAVYYCARAMGAIYYYYAMDVWGQGTTVTVSSASTKGPSVFPLAPSSKSTSGGTAALGCLVKDYFPEPVTVSWNSGALTSGVHTFPAVLQSSGLYSLSSVVTVPSSSLGTQTYICNVNHKPSNTKVDKKVEPKSCDKTHTCPPCPAPELLGGPSVFLFPPKPKDTLYITREPEVTCVVVDVSHEDPEVKFNWYVDGVEVHNAKTKPREEQYNSTYRVVSVLTVLHQDWLNGKEYKCKVSNKALPAPIEKTISKAKGQPREPQVYTLPPSRDELTKNQVSLTCLVKGFYPSDIAVEWESNGQPENNYKTTPPVLDSDGSFFLYSKLTVDKSRWQQGNVFSCSVMHEALHNHYTQKSLSLSPG light: QSALTQPPSVSGSPGQSVTISCTGTSSNIGNQFVSWYQQLPGTAPKLMIYEYNKRPSGVPDRFSGSKSGNTASLTISGLQTGDEADYYCGSWDSSLSGYVFGTGTRVTVLGQPKAAPSVTLFPPSSEELQANKATLVCLISDFYPGAVTVAWKADSSPVKAGVETTTPSKQSNNKYAASSYLSLTPEQWKSHRSYSCQVTHEGSTVEKTVAPTECS | – | – | – | – | – | – | – | – | – | – | 4.36 | 24.3 | – | – | – | – | – | – | – | – | fold smaller EC50 than 9M284 [11]: 2.8 fold

— patent US20190194356A1 (CHANGZHOU BOJIA BIOTECHNOLOGY, published 2019)
